Results on one molecule are retold here after patent publication US20110223630A1, “METHOD FOR SCREENING FOR COMPOUNDS THAT INHIBIT NEURODEGENERATION” (priority 2008, published 2011).

Experiment in all cases: Cell-based AP binding assay on transfected COS-1 cells
In one experiment the target is T1, p75NTR (Homo sapiens, UniProt P08138).
T1 construct: expressed in transfected cells; host or cells: COS-1
T1 sequence (P08138 29-427): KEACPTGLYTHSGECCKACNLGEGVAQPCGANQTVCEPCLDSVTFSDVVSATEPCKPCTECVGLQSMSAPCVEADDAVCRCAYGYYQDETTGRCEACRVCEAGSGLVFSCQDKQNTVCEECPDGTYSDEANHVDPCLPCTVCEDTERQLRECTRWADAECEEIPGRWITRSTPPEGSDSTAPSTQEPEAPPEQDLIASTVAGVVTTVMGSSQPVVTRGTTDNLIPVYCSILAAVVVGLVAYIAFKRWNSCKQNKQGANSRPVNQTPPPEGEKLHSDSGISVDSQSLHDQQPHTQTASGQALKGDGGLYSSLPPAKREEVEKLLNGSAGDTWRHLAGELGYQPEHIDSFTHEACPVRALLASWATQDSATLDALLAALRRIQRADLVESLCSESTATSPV
As to conditions: same conditions as APP. How it is done: (§1) The materials and methods used to generate the data shown in this figure are as follows. To test whether APP directly interacts with DR6 extracellular domain, a cell-based A binding assay was carried out (FIG. 14B). To generate DR6 ectodomain-A fusion protein (DR6-AP), COS-1 cells cultured in DMEM/10% FBS (Gibco) medium were transfected with 15 microgram of DR6-AP fusion expression construct using FuGene transfection reagent (Roche) according to the manufacturer protocol. Twelve hours post-transfection, COS-1 cell medium was changed to OPTI-MEM (Invitrogen). Forty-eight hours post-transfection, COS-1 cell conditioned medium containing DR6-AP proteins was collected and filtered. The amount of DR6-AP proteins in the medium was quantified according to the following procedure. 100 microliters of 2×AP buffer (prepared by adding 100 mg Para-nitrophenyl phosphate (Sigma) and 15 microliter of 1M MgCl2 to 15 ml 2M diethanolamine pH 9.8) was mixed with equal volume of transfected COS cell conditioned medium or control conditioned medium from untransfected COS-1 cells. The color of the reaction was developed over 12-15 minutes, with the O.D. being in the linear range (0.1-1). The volume of reaction was then adjusted by adding 800 microliters of distilled water and the O.D. was measured at 405 nm absorbance wavelength. The concentration in nM was calculated according to the formula (for 100 microliter): C (nM)=O.D.×100×(60/developing time)/30. For the APP AP binding assay, COS-1 cells cultured in DMEM/10% FBS (Gibco) medium in 6-well culture dishes were transfected with 2 microgram of APP expressing vector per well using FuGene transfection reagent (Roche) according to the manufacturer protocol. Two days post-transfection, cells were washed twice with the binding buffer (HBSS, Gibco Cat. No. 14175-095, with 0.2% BSA, 0.1% NaN3, 5 mM CaCl2, 1 mM MgCl2, 20 mM HEPES, pH=7.0). […]

For the next experiment, the target named is T2, APP (Homo sapiens, UniProt P05067).
T2 construct: expressed in transfected cells; host or cells: COS-1
As to conditions: DR6-AP conditioned medium 1:1 with binding buffer, 90 minutes. How it is done:
as §1

Another experiment concerns the target T3, DR6 receptor (Homo sapiens, UniProt O75509).
T3 construct: expressed in transfected cells; host or cells: COS-1
T3 sequence (O75509 42-655): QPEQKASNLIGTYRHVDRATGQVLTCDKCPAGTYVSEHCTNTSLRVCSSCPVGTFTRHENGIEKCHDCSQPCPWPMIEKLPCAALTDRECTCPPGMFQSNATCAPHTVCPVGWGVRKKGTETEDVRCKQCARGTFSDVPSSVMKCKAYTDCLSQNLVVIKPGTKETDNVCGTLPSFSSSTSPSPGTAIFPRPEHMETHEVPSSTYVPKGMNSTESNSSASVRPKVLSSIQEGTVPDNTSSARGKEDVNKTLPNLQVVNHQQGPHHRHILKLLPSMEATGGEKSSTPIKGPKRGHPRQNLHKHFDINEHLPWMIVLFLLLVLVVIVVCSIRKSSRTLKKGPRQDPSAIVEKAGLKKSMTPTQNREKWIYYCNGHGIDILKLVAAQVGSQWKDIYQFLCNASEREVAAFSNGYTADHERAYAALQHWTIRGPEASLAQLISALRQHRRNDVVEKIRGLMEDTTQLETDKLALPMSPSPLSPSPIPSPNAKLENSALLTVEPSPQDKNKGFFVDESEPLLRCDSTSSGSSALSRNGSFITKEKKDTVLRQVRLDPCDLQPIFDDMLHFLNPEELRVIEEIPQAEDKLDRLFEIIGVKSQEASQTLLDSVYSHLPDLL
The settings on record: same conditions as APP. As to the method: as §1

T2 sequence (P05067 18-770): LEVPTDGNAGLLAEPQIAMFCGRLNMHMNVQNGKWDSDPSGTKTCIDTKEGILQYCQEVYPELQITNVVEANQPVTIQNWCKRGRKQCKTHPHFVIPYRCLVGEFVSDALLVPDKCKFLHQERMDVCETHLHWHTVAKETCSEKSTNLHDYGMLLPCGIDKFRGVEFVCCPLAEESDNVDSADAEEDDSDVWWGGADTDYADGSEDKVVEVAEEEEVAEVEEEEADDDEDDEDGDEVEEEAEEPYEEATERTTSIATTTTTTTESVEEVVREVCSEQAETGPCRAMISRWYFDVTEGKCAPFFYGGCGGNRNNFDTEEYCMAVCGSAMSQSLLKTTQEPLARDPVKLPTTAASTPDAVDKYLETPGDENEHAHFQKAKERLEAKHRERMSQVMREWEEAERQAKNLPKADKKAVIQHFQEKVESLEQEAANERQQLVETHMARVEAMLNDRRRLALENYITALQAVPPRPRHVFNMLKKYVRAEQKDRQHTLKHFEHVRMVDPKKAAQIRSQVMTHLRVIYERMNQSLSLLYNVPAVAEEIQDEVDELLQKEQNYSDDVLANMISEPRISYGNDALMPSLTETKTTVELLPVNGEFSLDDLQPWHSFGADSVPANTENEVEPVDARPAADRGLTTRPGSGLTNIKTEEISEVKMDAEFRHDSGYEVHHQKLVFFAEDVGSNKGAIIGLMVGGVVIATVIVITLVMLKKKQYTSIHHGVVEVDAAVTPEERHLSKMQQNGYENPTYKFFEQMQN

B1: DR6-AP: mouse DR6 ectodomain fused to human placental alkaline phosphatase (protein)
chain: QPEQKTLSLPGTYRHVDRTTGQVLTCDKCPAGTYVSEHCTNMSLRVCSSCPAGTFTRHENGIERCHDCSQPCPWPMIERLPCAALTDRECICPPGMYQSNGTCAPHTVCPVGWGVRKKGTENEDVRCKQCARGTFSDVPSSVMKCKAHTDCLGQNLEVVKPGTKETDNVCGMRLFFSSTNPPSSGTVTFSHPEHMESHDVPSSTYEPQGMNSTDSNSTASVRTKVPSGIEEGTVPDNTSSTSGKEGTNRTLPNPPQVTHQQAPHHRHILKLLPSSMEATGEKSSTAIKAPKRGHPRQNAHKHFDINEH
modifications: left off: large carriers
notes: mouse DR6 ectodomain fused to human placental alkaline phosphatase
On to B1, for which, in the experiment with p75NTR, the “binding of DR6 ectodomain-AP to p75NTR expressing cells” value is “does NOT bind”. In the experiment with APP, the “binding of DR6 ectodomain-AP to APP expressing COS cells” value was “binds APP expressed by cultured cells”. Moreover, the “binding of DR6 ectodomain-AP to DR6 receptor expressing cells” value with DR6 receptor is on record as “does NOT bind”.
